# Measurements as given in the RNAGym collection of RNA variant scans (doi:10.1073/pnas.2313332121).
# B1: TPR t1 (parent)
# chain: GACCAAUCUGCCCUCAGAGCUCGAGAACAUCUUCGGAUGCAGAGGAGGCAGGCUUCGGUGGCGCGAUAGCGCCAACGUCCUCAACCUCCAAUGCAUCCCACCACAUGAUGAUGCCUGAAGAGCCUUGGUUUUUUG
# Variants of: B1
# Experiment: polymerase ribozyme fitness, log enrichment relative to wild type (log ratio); higher = more active; in vitro selection for triplet polymerase activity
# Outline: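 Both subunits of a heterodimeric triplet polymerase ribozyme were given their own mutant library, built by PCR and transcribed. Each library was annealed with a biotinylated primer, the partner subunit and triplets, incubated frozen at −7 °C, and its extended constructs gel-excised, captured on streptavidin beads and amplified by RT-PCR, all in one round done in triplicate. Fitness is the logarithm of genotype enrichment relative to wild-type enrichment, with replicates averaged by inverse-variance weighting. That logarithm is base 2, and Illumina-sequenced genotypes needed ≥10 input reads and ≥1 read per output.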
row,Variant,polymerase ribozyme fitness (log ratio)
1,C4U C53U C82A U129C,-2.91
2,C20A A29U C62U A119U U129G,-4.53
3,A41U C62G,-3.92
4,G47U A118G U130G,-3.01
5,A46U G57U C94A,-2.21
6,C82A U125A,-0.778
7,A6U C11A C12U A37G G61A,-1.24
8,U109A,-5.11
9,G10A C13U U38G C56U C82G,-1.27
10,A41U C72G U125G U133G,-2.77
11,G39A G71A C82U U87C U132C,-1.47
12,C86U A111G C123A G127A,-2.33
13,A29G C104U U112G,1.06
14,C4U C34A G52C C99A C102U U106C,-6
15,C8U A18U C53U C79G G93C U130G,-4.48
16,U92C G120U,0.184
17,A41U G113C,-3.1
18,C11G G36A,0.396
19,A41U C49A G52C C72U,-3.5
20,G39A C64U,0.0887
21,C13G G42U C49U G61U U130A,-4.93

row,Variant,polymerase ribozyme fitness (log ratio)
1,C8A C53A U78C C80U,-0.244
2,G45C G58A A121C,0.614
3,G69C C114U,-1.95
4,G42C G63A C88U,-3.63
5,C11U C40U G60U G77C A111U,-4.37
6,U30C G52C,-3.38
7,C12A U96A A121G,-0.355
8,C101G G127U,-2.83
9,G36C G48A G60C G61C,-3.64
10,C40A C82U,-1.77
11,C72U U106C,-0.313
12,G51A C53G G117C G127C,-7.73
13,A16G C64U G77U,-1.55
14,G45U C56U U81G C101G C114A,-5.46
15,A84U G110U,-1.34
16,G52U U109C A118U,-6.47
17,C72U G110C,-4.19
18,A41U G110A,-2.6
19,G69A G127C,-3.47
20,G63A U87G A111C,-1.52
21,C80U G128C,-3.33

row,Variant,polymerase ribozyme fitness (log ratio)
1,G61C A90U G93A,-4.85
2,G17C A18U C40U C56G C70G A108G A111U,-7.19
3,G17A A90C C101A C114G,-5.04
4,C8U A74U C94A,-0.334
5,C3U C40G G63C C115U,-2.66
6,G10A G52A G60A C79A,-1.36
7,G17U C123A,-1.2
8,C80U G120U,-0.245
9,C40G C82U U106A,-1.73
10,G110A G122A C123U,-2.1
11,G52U U125A,-0.984
12,C49A G117A,-1.89
13,A5G C12U G113U U125C,-2.74
14,C12U U78A A108U G120C,-5.26
15,C72U C79A C115U,-3.58
16,U9G G48U G93C A111C,-1.91
17,C49A C56A U131C U133A,-0.929
18,C49G G61U C88A,-1.08
19,G10C A103U C123U,-5.06
20,C40A C70U C124U,-0.171
21,A18C G25U A41G C53U C124A,-6.92

row,Variant,polymerase ribozyme fitness (log ratio)
1,C34G C79U,-5.43
2,G69A C79A,-3.99
3,A46U G110A,-2.4
4,C11U G69U A121G,2.01
5,U7G C12G G58A C72U,0.394
6,U21C A29U A84C U112A A119G G120C,-0.885
7,C73G A100U,-1.09
8,G63U U78G,-3.12
9,C3A G36A C64U C123G,-0.723
10,C20U A50U U78C,-1.87
11,C94A G113A,-0.888
12,C12G A41U A83U G113C,-3.27
13,U81G U131A,-3.6
14,C20A U21A C73G,-4.94
15,G61U G135A,-0.268
16,G61A U81G A105U U112G,-5.6
17,G45U A105U,-3.16
18,U9G C72A,-0.48
19,U14G U78A G117A G120A,-2.29
20,A121C U125G,0.923
21,A2G G51A C73G,-2.89
